US20250154213A1, “De Novo Designed Cortisol Biosensor” (University of Washington, priority 2023, published 2025)

Legend:
[1] = tested on: seq129.1_CID-SmBiT and mini11-LgBiT; assay: Cortisol sensing with NanoBiT fusions (luminescence on cortisol titration); type: biochemical; details: seq129.1_CID-SmBiT and mini11-LgBiT mixed equimolar, cortisol 2-3 hours, DTZ 25 μM; estimated; read-out: EC50 of luminescent signal on cortisol titration
Text: FIG. 2. Design and characterization of a cortisol-dependent heterodimer. (A) Design pipeline for cortisol-induced heterodimerization. Starting from a model of seq129.1_CID in complex with cortisol (top), we used RIFdock™ and a library of designed 3-helix bundles to generate thousands of putative ternary complexes (middle), and amino acid sequences encoding these complexes were generated with FastDesign™ and ProteinMPNN™ (bottom). Zoom-in of the designed CID ternary complex (seq129.1_CID, mini11, and cortisol) (bottom panel). (B) Size-exclusion chromatography traces of an equimolar solution of seq129.1 and mini11 (1 μM) in the presence or absence of cortisol (10 μM). (C) Schematic diagram of the designed cortisol-induced heterodimerization coupled with a binary split luciferase to create a biosensor. […]
As a proof-of-concept for the application of the designed CID as a sensor for cortisol, we genetically fused seq129.1_CID and mini11 to the SmBiT and LgBiT components of the NanoBiT™ system, respectively, which reconstitutes NanoBiT™ and generates luminescence when brought in close proximity by a molecular interaction 18.
seq129.1_CID and mini11 were genetically fused to SmBiT and LgBiT, respectively, and ordered as eblocks from IDT. […] Immediately after adding DTZ, the luminescent signal was measured on a Neo2 plate reader. […]

seq129.1_CID-SmBiT = target: T1, seq129.1_CID-SmBiT; assay: cell-based or functional assay
T1 chain: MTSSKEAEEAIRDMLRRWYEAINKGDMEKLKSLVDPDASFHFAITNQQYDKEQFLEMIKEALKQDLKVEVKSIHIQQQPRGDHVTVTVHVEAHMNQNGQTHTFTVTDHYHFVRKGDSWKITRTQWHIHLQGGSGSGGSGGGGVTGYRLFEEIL

seq129.1_CID = assay: Native mass spectrometry of the ternary complex; type: binding; details: cortisol and mini11

Molecule: C[C@]12CCC(=O)C=C1CC[C@@H]1[C@@H]2[C@@H](O)C[C@@]2(C)[C@H]1CC[C@]2(O)C(=O)CO [cortisol]
- EC50 [1]: 25 nM

B1: mini11-LgBiT (designed binder)
chain: MSSASTLVKTFSLCMEALSIEDPEKREEVYEKARKLAEENNDPAALFLVESIKKQHEQSGGSGGMVFTLEDFVGDWEQTAAYNLDQVLEQGGVSSLLQNLAVSVTPIQRIVRSGENALKIDIHVIIPYEGLSADQMAQIEEVFKVVYPVDDHHFKVILPYGTLVIDGVTPNMLNYFGRPYEGIAVFDGKKITVTGTLWNGNKIIDERLITPDGSMLFRVTINS
- luminescent signal of reconstituted NanoBiT on titration with cortisol (the EC50 is a cortisol concentration) (seq129.1_CID-SmBiT): 25 nM

B2: mini11: designed 3-helix bundle minibinder that binds seq129.1_CID only with cortisol (protein)
chain: MSSASTLVKTFSLCMEALSIEDPEKREEVYEKARKLAEENNDPAALFLVESIKKQHEQSSSLE
- ternary complex by native mass spectrometry (seq129.1_CID): revealed a molecular weight for the seq129.1_CID-cortisol-mini11 ternary complex
